From US20260125455A1 (CLEVELAND CLINIC FOUNDATION, published 2026)

B1: MoC601 HuG4K (chimeric C601 antibody) (antibody, human IgG4 S228P, kappa, V domains shown)
VH: QVQLQQSGAELVKPGASVKISCKASGYAFSDYWMNWVKQRPGKGLEWIGQIYPGDDDTNYNGKFKGKATLTADKSSSTAYMQLSSLTSEDSAVYFCAREGYYGYTYVEYFDVWGTGTTVTVSS
VL: QIVLTQSPAIMSVSPGEKVTLTCSASSSVSYMHWYQQKSGTSPKRWIYDTSKLASGVPARFSGSGSGTSYSLTISSMEAEDAATYYCQQWTSNPLTFGAGTKLELRR
notes: also called chimeric antibody; chimeric 1C9
B2: C601HFKC4 HuG4K (antibody, human IgG4 S228P, kappa)
heavy: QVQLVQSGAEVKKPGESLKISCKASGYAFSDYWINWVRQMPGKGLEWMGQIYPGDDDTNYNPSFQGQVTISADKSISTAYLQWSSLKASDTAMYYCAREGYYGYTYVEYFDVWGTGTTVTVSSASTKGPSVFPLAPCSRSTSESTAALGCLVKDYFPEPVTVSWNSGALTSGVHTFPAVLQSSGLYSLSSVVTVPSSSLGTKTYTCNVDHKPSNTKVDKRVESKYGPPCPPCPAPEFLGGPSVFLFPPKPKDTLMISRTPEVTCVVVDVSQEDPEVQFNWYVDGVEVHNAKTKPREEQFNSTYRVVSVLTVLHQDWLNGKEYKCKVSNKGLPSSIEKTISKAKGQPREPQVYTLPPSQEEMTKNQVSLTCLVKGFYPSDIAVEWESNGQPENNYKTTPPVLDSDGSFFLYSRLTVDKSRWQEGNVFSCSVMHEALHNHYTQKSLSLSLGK
light: QIVLTQSPATLSLSPGERATLSCRASSSVSYLHWYQQKPGQSPRLWIYDTSKRATGIPARFSGSGSGTDYTLTISSLEPEDFAVYYCQQWTSNPLTFGQGTKLEIKRTVAAPSVFIFPPSDEQLKSGTASVVCLLNNFYPREAKVQWKVDNALQSGNSQESVTEQDSKDSTYSLSSTLTLSKADYEKHKVYACEVTHQGLSSPVTKSFNRGEC
notes: also called 3713; clone 3713

What was measured:
[1] = molecular target: T1, human complement protein C6 (human, UniProt P13671 22-934); test: SPR (Biacore 8K)
T1 construct: also called human C6; C6 antigen
T1 sequence (P13671 22-934 limits assumed): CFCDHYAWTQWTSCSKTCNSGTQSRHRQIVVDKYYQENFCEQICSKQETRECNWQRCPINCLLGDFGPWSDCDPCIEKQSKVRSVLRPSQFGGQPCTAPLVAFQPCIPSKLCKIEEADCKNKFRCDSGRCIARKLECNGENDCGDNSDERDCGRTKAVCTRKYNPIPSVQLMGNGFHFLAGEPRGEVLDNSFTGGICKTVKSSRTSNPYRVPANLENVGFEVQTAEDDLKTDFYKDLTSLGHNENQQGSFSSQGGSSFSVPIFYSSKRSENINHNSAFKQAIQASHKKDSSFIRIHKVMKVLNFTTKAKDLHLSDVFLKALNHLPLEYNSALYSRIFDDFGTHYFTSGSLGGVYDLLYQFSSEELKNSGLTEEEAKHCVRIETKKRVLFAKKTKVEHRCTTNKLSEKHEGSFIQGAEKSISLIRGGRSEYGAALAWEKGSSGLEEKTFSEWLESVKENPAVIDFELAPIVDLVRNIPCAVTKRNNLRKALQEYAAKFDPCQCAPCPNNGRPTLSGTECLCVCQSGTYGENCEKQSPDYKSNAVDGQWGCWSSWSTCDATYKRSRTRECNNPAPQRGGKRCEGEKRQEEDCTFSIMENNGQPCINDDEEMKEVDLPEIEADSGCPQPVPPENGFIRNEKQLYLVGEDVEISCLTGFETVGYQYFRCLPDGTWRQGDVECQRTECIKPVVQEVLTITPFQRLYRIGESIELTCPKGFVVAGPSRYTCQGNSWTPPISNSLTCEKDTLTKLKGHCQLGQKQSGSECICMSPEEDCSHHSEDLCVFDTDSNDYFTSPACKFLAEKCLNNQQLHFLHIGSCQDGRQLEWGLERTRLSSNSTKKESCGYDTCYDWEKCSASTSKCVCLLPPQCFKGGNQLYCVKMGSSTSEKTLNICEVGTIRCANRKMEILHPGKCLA
Protocol: (§1) The kinetics of C6 binding was compared for the purified chimeric and lead humanized C601 using surface plasmon resonance (SPR, Biacore 8K). IgG were captured on a protein G sensor chip and binding of C6 measured using a three-fold concentration series of C6 from 0.03 nM-25 nM (FIG. 5). In a second experiment, a two-fold concentration series from 0.31 nM-20 nM C6 was used (FIG. 6). For all antibodies, binding of C6 occurred in a concentration-dependent manner and data could be fitted using a 1:1 model to calculate the association rate (kₒₙ), dissociation rates (kd) and affinity constant (KD). The kinetic data are shown in Table 5, which indicates only small differences between the parameters determined from the two independent experiments.
(§2) Binding ELISAs used Nunc Maxisorp 384-well plates, wells coated with C6, C5b,6 complex or C5 (Complement Technology Inc, TX) and goat anti-human IgG (Fab specific) peroxidase secondary antibodies (Sigma-Aldrich, A0293) for detection. For the thermal stability assay, IgG supernatants were diluted to their EC₈₀ concentration, incubated at different temperatures for 10 min and C6 binding measured by ELISA with the binding signal plotted against temperature. Kinetics of C6 binding were measured by capturing antibodies from supernatant samples using Protein G biosensors and performing a 20 min association step with 2.5 nM C6 and a 20 min dissociation step using the Octet RED96. Precise kinetic measurements were obtained by surface plasmon resonance (Biacore 8K, Cytiva). The IgG were captured on a protein G sensor chip. Binding of C6 measured using a three-fold concentration series of C6 from 0.03 nM-25 nM and data were fitted using a 1:1 model in two independent experiments.

[2] = molecular target: T1, human complement protein C6; test: ELISA, C6-coated wells
[3] = molecular target: T1, human complement protein C6; test: SPR (Biacore 8K), IgG on protein G chip, C6 0.03-25 nM 3-fold series, 1:1 fit
Protocol: as §1, §2

[4] = molecular target: T1, human complement protein C6; test: SPR (Biacore 8K); remark: listed apart in the source
Protocol: as §1
Binding ELISAs used Nunc Maxisorp 384-well plates, wells coated with C6, C5b,6 complex or C5 (Complement Technology Inc, TX) and goat anti-human IgG (Fab specific) peroxidase secondary antibodies (Sigma-Aldrich, A0293) for detection. For the thermal stability assay, IgG supernatants were diluted to their EC₈₀ concentration, incubated at different temperatures for 10 min and C6 binding measured by ELISA with the binding signal plotted against temperature. […] Binding of C6 measured using a three-fold concentration series of C6 from 0.03 nM-25 nM and data were fitted using a 1:1 model in two independent experiments.

[5] = molecular target: T1, human complement protein C6; test: SPR (Biacore 8K), IgG on protein G chip, C6 0.31-20 nM 2-fold series, 1:1 fit
Protocol: as §1

[6] = molecular target: human complement protein C5 (human, UniProt P01031 19-673; P01031 678-1676); test: ELISA, C5-coated wells
Chain of human complement protein C5 (P01031 19-673 limits assumed, chain 1 of 2): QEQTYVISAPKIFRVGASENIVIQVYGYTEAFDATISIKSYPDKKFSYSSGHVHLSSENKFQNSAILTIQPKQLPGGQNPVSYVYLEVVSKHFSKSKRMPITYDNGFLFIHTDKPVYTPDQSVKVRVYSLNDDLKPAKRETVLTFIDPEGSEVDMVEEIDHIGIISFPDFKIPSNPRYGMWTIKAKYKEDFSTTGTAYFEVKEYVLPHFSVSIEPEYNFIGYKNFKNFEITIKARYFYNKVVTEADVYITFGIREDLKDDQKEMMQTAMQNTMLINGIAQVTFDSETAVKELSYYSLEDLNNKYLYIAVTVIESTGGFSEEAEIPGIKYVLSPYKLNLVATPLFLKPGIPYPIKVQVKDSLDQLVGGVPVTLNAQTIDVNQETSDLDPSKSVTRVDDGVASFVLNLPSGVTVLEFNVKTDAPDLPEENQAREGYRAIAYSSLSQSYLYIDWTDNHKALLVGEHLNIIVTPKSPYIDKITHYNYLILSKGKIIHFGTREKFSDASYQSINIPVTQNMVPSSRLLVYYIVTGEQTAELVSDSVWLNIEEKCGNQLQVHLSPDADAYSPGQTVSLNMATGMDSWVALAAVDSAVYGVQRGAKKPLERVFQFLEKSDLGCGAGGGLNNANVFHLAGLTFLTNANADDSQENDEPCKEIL
Chain of human complement protein C5 (P01031 678-1676 limits assumed, chain 2 of 2): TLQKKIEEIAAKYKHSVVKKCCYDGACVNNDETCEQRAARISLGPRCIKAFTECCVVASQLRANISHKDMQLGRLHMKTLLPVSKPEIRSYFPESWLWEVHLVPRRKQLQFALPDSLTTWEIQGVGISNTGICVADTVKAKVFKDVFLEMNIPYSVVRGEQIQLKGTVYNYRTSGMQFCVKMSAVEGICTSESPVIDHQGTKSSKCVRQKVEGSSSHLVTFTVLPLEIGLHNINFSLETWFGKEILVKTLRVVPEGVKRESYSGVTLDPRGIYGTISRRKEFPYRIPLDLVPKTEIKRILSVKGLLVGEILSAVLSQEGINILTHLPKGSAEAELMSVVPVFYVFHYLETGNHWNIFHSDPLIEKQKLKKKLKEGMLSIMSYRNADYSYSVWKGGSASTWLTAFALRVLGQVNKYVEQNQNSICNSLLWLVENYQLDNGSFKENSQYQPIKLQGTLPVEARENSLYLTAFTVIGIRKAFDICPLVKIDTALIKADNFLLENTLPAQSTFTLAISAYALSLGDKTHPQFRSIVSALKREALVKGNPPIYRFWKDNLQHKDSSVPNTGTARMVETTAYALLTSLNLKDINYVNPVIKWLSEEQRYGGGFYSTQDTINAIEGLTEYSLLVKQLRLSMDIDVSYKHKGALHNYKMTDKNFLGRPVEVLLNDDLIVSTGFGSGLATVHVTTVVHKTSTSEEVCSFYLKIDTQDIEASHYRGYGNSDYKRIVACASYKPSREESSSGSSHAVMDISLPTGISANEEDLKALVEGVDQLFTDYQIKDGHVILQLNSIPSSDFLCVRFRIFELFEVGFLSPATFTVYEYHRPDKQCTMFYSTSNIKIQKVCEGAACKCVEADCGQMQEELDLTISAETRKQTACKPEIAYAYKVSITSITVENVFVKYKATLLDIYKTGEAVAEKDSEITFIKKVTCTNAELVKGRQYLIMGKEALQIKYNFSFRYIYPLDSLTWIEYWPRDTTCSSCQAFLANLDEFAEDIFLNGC
Protocol: The 20 purified antibodies were tested by ELISA for their abilities to bind human complement proteins C5, C5b6 and C6. The antibodies were divided into two sets for this analysis. MoC601 HuG4K and HuG4K isotype controls were included alongside each set, as was C601HFKC4 HuG4K (aka 3713) expression supernatant from the original transfection as an additional positive control. In addition, three humanized antibodies (C601HFKC4 HuG4K, C601HPKI HuG4K and C601HPKC4 HuG4K) were included within both sets to allow better comparison between the plates. The antibodies all show specificity for C6 with no detectable binding to C5. All humanized antibodies bind to C6 and to C6 as part of the C5b6 complex. The lower plateaus of the C5b6 complex binding curves are explained by less C6 protein being available for binding when wells are coated with C5b6 complex as opposed to C6 alone. […] The EC₅₀ values are included in the figure but slightly different plateau levels observed for the antibodies are influencing the apparent EC₅₀ values. However, it was noted that the EC₅₀ values tended to be lower on the plates for the second set of antibodies. For this reason, a subset of the 20 antibodies was tested in a further ELISA for binding to C6 and C5b6 complex.
as §2

[7] = molecular target: T1, human complement protein C6; test: C6-binding ELISA, A650 nm; sample 'human serun' (human serum, 28 days at 37 C)
Protocol: For the serum stability assessment, samples of the purified candidate antibodies are normally incubated in mouse, human and cynomolgus serum at 37 C for 28 days and then tested in an antigen-binding ELISA. Since the anti-C6 antibodies are expected to bind to both human and cynomolgus C6 but not mouse C6, we anticipated that incubating in human or cynomolgus sera would reduce ELISA binding due to occupation of the antibody binding sites by C6 protein from the sera. Therefore, the chimeric and humanized antibodies were tested with human and mouse sera and with human sera from which the C6 protein has been depleted. […]
as §2, with “Precise kinetic measurements were obtained by surface plasmon resonance (Biacore 8K, Cytiva). The IgG were captured on a protein G sensor chip. Binding of C6 measured using a three-fold concentration series of C6 from 0.03 nM-25 nM and data were fitted using a 1:1 model in two independent experiments.” left out

Row | Binder | Kd [1] [nM] | EC50 [2] [nM] | Kd [3] [nM] | koff [3] [s⁻¹] | kon [3] [M⁻¹ s⁻¹] | Kd [4] [nM] | Kd [5] [nM] | koff [5] [s⁻¹] | kon [5] [M⁻¹ s⁻¹] | binding result [6] | EC50 [7] [nM]
1 | B1 | 0.527 | 0.2 | 0.527 | 0.000448 | 850000 | 0.527 | 0.459 | 0.000413 | 900000 | – | –
2 | B2 | 0.343 | 0.19 | 0.343 | 0.000389 | 1.13e+06 | 0.343 | 0.226 | 0.000306 | 1.36e+06 | no binding | 0.19
